Experimental findings from patent US20180296689A1 (published 2018) are described below.

Assay [1] deals with Human neonatal receptor (FcRn) (human, UniProt P55899 24-297, limits assumed). Kind of assay: SPR (BIACore), low density FcRn biosensor chip, three runs of five dilutions. On the technique in general: Surface plasmon resonance follows binding to a sensor surface in real time, without labels.
Assay [2] deals with T1, TROP-2 (EGP-1), human, on tumor cell lines (human, UniProt P09758 27-323).
T1 construct: whole, on cells; 36-kDa cell-surface glycoprotein; also called epithelial glycoprotein-1
T1 sequence (looked up): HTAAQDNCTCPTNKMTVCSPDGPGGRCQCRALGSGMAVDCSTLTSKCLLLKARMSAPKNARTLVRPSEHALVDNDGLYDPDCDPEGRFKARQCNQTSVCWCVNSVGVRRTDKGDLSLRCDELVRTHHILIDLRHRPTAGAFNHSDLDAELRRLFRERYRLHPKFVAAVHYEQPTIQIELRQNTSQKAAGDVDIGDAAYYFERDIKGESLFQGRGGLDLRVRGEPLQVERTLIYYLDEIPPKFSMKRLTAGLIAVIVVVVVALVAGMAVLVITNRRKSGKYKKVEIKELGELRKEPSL
As to the kind of experiment: cell binding on TROP-2-positive PC-3 human prostate carcinoma cells, three separate occasions.

Chain of Human neonatal receptor (FcRn) (P55899 24-297 limits assumed): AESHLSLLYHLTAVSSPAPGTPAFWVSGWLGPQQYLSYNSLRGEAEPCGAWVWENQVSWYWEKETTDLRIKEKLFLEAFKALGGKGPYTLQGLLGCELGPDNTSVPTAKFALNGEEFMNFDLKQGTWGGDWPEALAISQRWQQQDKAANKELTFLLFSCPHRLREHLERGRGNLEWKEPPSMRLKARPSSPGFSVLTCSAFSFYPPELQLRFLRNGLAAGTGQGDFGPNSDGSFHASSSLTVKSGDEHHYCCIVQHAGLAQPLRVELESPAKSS

B1: hRS7 IgG (humanized anti-TROP-2 IgG1 monoclonal antibody, unconjugated) (antibody)
chain 1: not shown
chain 2: DIQLTQSPSSLSASVGDRVSITCKASQDVSIAVAWYQQKPGKAPKLLIYSASYRYTGVPDRFSGSGSGTDFTLTISSLQPEDFAVYYCQQHYITPLTFGAGTKVEIKRTVAAPSVFIFPPSDEQLKSGTASVVCLLNNFYPREAKVQWKVDNALQSGNSQESVTEQDSKDSTYSLSSTLTLSKADYEKHKVYACEVTHQGLSSPVTKSFNRGEC
In the case of B1, the dissociation constant Kd (as a rule, the free concentration of one partner at which half of the binding sites on the other are occupied at equilibrium, for simple one-to-one binding) in assay [1] came to 192 nM; in assay [2] it was 0.564 nM.
